The RNAGym collection of RNA variant scans (doi:10.1073/pnas.2313332121)

B1: TPR t1 (parent)
chain: GACCAAUCUGCCCUCAGAGCUCGAGAACAUCUUCGGAUGCAGAGGAGGCAGGCUUCGGUGGCGCGAUAGCGCCAACGUCCUCAACCUCCAAUGCAUCCCACCACAUGAUGAUGCCUGAAGAGCCUUGGUUUUUUG

Variants of: B1
Assay: polymerase ribozyme fitness, log enrichment relative to wild type (log ratio); higher = more active; in vitro selection for triplet polymerase activity
How it was run: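 In triplicate, a single round of in vitro selection was run on each mutant library, PCR-built and transcribed, covering one subunit of a heterodimeric triplet polymerase ribozyme. Frozen incubation at −7 °C followed annealing with a biotinylated primer, partner subunit and triplets, and extended constructs were then gel-excised, streptavidin-captured and taken through RT-PCR. Fitness is the logarithm of genotype enrichment over wild-type enrichment, from inverse-variance-weighted replicate averages of Illumina-sequenced inputs and outputs. […] only genotypes with ≥10 input reads and ≥1 read per output were kept.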

Row | Variant | polymerase ribozyme fitness (log ratio)
1 | C11A G60U C97A C123U | -2.32
2 | C11A C22G G48A C72G A119G | -4.64
3 | C11A G71C | -2.37
4 | C11A U96A G113C | -5.3
5 | C11A C40U | -2.35
6 | C11A C40A G52A U92A | -3.14
7 | C11A U96A | -2.53
8 | C11A G60A C101A C124G | 0.624
9 | C11A C53U | -1.77
10 | C11A C53G | -1.8
11 | C11G A29C C49A G117A G120A | -3.48
12 | C11A U30C G63U C64U U81A C104G A111U A119G U132C | -6.95
13 | C11A G44C G48U | -4.1
14 | C11A G63C U81G | -5.33
15 | C11A G45U C64A U78A A95C G113U | -7.43
16 | C11A C40A A74G G135U | -2.09
17 | C11A G47U C56A C86A U106G | -3.84
18 | C11A G47A G61U A105U U126A | -5.18
19 | C11A U92A | -4.36
20 | C11A C56A C64U U126G | -4.75
21 | C11A C22A C56G U78A U112A U131A | -2.4
22 | C11G A24G C40U G120U U132G | -2.9
23 | C11A G58C | -2.25
24 | C11A C13G G36U | -2.87

Row | Variant | polymerase ribozyme fitness (log ratio)
25 | C11A C85U | -1.28
26 | C11A G61C A100C A121U | -1.61
27 | C11A U30C G47A G63A A121G U131A | -3.75
28 | C11A G93U | -1.93
29 | C11A U54A C123A | 0.93
30 | C11A G52U | -2.14
31 | C11A G52A | -1.58
32 | C11A G47A C102A | -4.79
33 | C11A C34A C88G U106C | -5.02
34 | C11G A26C G60U C97U G120U U132A | -3.92
35 | C11A G39U | -1.81
36 | C11A C13G C72U C88G G113A | -5.81
37 | C11A G63C | -1.78
38 | C11A G47A | -3.21
39 | C11A G58C U59G U81A | -2.19
40 | C11A G42U | -2.71
41 | C11A C49U C94G | -2.46
42 | C11A C72G C79A C85A A121U | -1.86
43 | C11A G77U | -2.4
44 | C11A G42C A118G | -3.71
45 | C11A C89A G93A A118G | -3.96
46 | C11A G17C G19A G39A G69U C123G | -5.74
47 | C11A G39A A105C | -3.91
48 | C11A C40U G45A C70A G120C | -1.21

Row | Variant | polymerase ribozyme fitness (log ratio)
49 | C11A C80G C88U | -6.42
50 | C11A U33G | -6.86
51 | C11A G39U G71A | -2.63
52 | C11G A18U C40U C82U C99A U109G | -5.71
53 | C11A G36U G48C C62G C115A G120C | -4.4
54 | C11A C88G | -2.99
55 | C11A C70G C80U C97G C124A | -5.66
56 | C11G A18U A41U G57A A74U C114U G128C | -4.05
57 | C11A U21C U112G | -0.593
58 | C11A C49U C85A U106A | -3.44
59 | C11A C13U C53G A90C A91G | -3.8
60 | C11A G36A A50G G113C | -4.17
61 | C11A G47A G77C A84G G128A | -4.94
62 | C11A G45U G63U | -3.75
63 | C11A U38G C56U A90U | -3.35
64 | C11A G17A | -6.16
65 | C11A G17C | -4.25
66 | C11A C49G | -1.67
67 | C11A C13U | -1.75
68 | C11G A18U C86U C124U | -0.586
69 | C11A C124A | 1.26
70 | C11A C49G G60A A75U G93U | -3.77
71 | C11A G61U | -1.39
72 | C11A G61A | -1.4

Row | Variant | polymerase ribozyme fitness (log ratio)
73 | C11A C82A | -2.13
74 | C11A C53G G69U C72U | -1.37
75 | C11A C49G C64U A121U | 0.957
76 | C11A U33G U54A C70U A95C U112A | -6.99
77 | C11A C49G G60A G93U | -2.13
78 | C11A C22U A91U C102U C115U G135U | -6.8
79 | C11A G45C C62U | -2.56
80 | C11A G113U G122U | -2.8
81 | C11G A16U A24G G47C G63U A111C | -7.31
82 | C11A C73G | -1.79
83 | C11A C15U C28G C123G G128U | -5.63
84 | C11A G71C U125G G135U | -3.28
85 | C11A C101A | -3.16
86 | C11A C89A A111U G122A | -5.04
87 | C11A G39A A43U U59C A91C G113A A118G C124G U125A | -4.98
88 | C11A C79U G120A | 1.38
89 | C11A C53U C56A C76G | -3.44
90 | C11G A27U G36A G58A | -3.1
91 | C11A G36A C79U U87A | -4.09
92 | C11A G61A C62A C80U G113C | -7.76
93 | C11A C13U A50U C62U | -2.9
94 | C11A U30G A37C U112C | -5.59
95 | C11A C94U | -1.19
96 | C11A G45U G71C A121C U132A | -0.245

Row | Variant | polymerase ribozyme fitness (log ratio)
97 | C11A C85A C114A C123U | -2.71
98 | C11A C56A A66G C85A U112A | -4.09
99 | C11G A18U | -1.34
100 | C11A G57U G93U | -3.77
101 | C11A C115U | -2.42
102 | C11A C123G | 1.15
103 | C11A G60U U87C U112C G117A U130C | -5.25
104 | C11A G113C G135U | -4.88
105 | C11A G113A C114U U133G | -5
106 | C11A C20U C40A A43U A119U | -5.02
107 | C11A U33G G52U C56U C64G G120C | -6.81
108 | C11A G17U U112A U131G | -3.56
109 | C11A C72U U78C C82G C101A A121C | -0.882
110 | C11A G60U G71C U87C U112C G117A U130C | -7.15
111 | C11G A16G G71U C101A G128U | -3.82
112 | C11A U21A A50C | -1.95
113 | C11G A16C A29G G45U | -4.19
114 | C11A U96G G113C U130A | -5.5
115 | C11A G45U C49U C70U U87A | -3.95
116 | C11A C13U G63C A83U | -1.91
117 | C11A G69A C82U | -3.91
118 | C11A U38G G48C C115G G122U | -2.9
119 | C11A G77A A84U G122A | -1.06
120 | C11A U54G | -2.05

Row | Variant | polymerase ribozyme fitness (log ratio)
121 | C11A G69C | -2.03
122 | C11G A27U C49A G61A A84G | -4.25
123 | C11A C31G G47A U92C G120A U131A | -5.58
124 | C11A C82G C101A A121C | -0.28
125 | C11A C28U G36A U81A C85U G120A | -4.25
126 | C11A C13U G60C A100C U132C | -2.62
127 | C11G A16U G47C G60A | -3.03
128 | C11A G61A C80U C98U A100U | -4.96
129 | C11A C53U C76U C80G G117C | -7.25
130 | C11A C49A U59A A68G A91G | -6.83
131 | C11A G42A U54A C64U U129C | -4.74
132 | C11A C56G | -1.77
133 | C11A U33G C56G A103G G122A | -6.79
134 | C11A G120A | 0.576
135 | C11A C49U C102A | -3.16
136 | C11A U87G C101G | -2.62
137 | C11G A27U G47C G69U A83U | -2.78
138 | C11A C89U | -2.53
139 | C11A C49U G93A U129A | -3.29
140 | C11A C76A | -2.77
141 | C11A C28U C53U C89A | -5.79
142 | C11A U112G | -1.43
143 | C11A G17U C115G C123G U126C | -3.25
144 | C11A C98U U125A | -2.97

Row | Variant | polymerase ribozyme fitness (log ratio)
145 | C11A G113U | -3.17
146 | C11A G71U A91G A121U | 0.632
147 | C11A C13U C53A | -1.65
148 | C11A G107U G122A | -3.88
149 | C11A C53U U129A | -2.66
150 | C11A G42C G51C G57U C62U U78C C89U G113A G122C | -6.22
151 | C11A C64U U106A A108U | -3.91
152 | C11A G61U C102U | -3.03
153 | C11A G48U U96G U112C | -1.36
154 | C11A C13U G63U | -2.94
155 | C11A C72A A91G C101U G113C U132C | -4.14
156 | C11A U30C U81A C104G A111U A119G U132C | -6.53
157 | C11A C62U G117A G122A | -0.74
158 | C11A C72A A91G U126G | -5.33
159 | C11A G128C | -3.97
160 | C11A C22G G48A A119G | -3.23
161 | C11A G47A G69U G77U | -1.86
162 | C11A C56A C89U | -1.96
163 | C11G A26U | -1.77
164 | C11A G122U | 0.0729
165 | C11A C28G C80U | -3.39
166 | C11A C20U | -1.95
167 | C11G A27G A29U C94U | -2.53
